1 molecule from US20260325634 (published 2026) can be followed below.

The target in this test is T1, CD123 (IL-3R alpha) (human, UniProt P26951).
T1 chain: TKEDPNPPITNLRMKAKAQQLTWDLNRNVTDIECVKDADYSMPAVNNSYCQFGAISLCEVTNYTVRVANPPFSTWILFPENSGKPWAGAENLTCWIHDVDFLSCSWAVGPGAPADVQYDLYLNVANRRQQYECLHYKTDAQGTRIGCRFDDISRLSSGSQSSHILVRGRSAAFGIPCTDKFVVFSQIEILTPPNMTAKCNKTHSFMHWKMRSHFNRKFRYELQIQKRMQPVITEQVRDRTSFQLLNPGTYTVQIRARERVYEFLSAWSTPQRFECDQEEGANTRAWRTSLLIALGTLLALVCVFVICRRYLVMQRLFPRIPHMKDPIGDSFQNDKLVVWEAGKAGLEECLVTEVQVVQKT
In words: BLI.

B1: AB1 (18B4D5) (antibody, V domains shown)
VH: EVKLQESGPGLVKPSQSLSLTCTVTGYSITSDYTWNWIRQFPGNKLEWMGYISFSGSTSYNPSLKSRLSITRDTSKNQFFLQLNSVTTEDTATYYCARGLDYWGQGTTLTVSS
VL: DIVMTQSPAIMSASLGERVTMTCTASSSISSSYLYWYQQKPGSSPKLWIYSTSNLASGVPARFSGSGSGTSYSLTISSMEAEDAATYYCHQLHRSPWTFGGGTKLEIKR
The molecule B1 gave a Kd of less than 1 pM.

Broadly, the Kd is the concentration at which binding is half-saturated. A lower Kd goes with a tighter complex.
